For this experiment, the target named is ovalbumin peptide SIINFEKL presented on mouse MHC Class I H-2Kb on OP9-DL1 cells (mouse) (UniProt P01901). As to the kind of experiment: cell-based or functional assay.

Some results are limits rather than exact numbers.

Sequence of UniProt P01901 (P01901 22-369): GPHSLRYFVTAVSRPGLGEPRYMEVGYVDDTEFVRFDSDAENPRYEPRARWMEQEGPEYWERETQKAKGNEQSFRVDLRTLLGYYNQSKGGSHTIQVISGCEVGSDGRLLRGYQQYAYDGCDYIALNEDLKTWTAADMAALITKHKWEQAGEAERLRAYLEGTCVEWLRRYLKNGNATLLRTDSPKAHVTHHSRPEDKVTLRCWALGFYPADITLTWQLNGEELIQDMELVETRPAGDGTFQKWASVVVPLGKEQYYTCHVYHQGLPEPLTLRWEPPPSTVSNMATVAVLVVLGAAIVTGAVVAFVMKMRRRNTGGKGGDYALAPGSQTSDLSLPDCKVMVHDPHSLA

“OT-1 transgenic TCR (specific for ovalbumin peptide SIINFEKL presented on H-2Kb)” gave a development or survival of double positive (DP) T cells from OT-1 progenitors in OP9-DL1 culture, flow cytometry greater than 0.01 µM.

Source of the values: patent US10875904B2.
